Data taken from patent US20140274782A1, “AFFINITY REAGENTS AND METHODS FOR DETECTION, PURIFICATION, AND PROTEOMIC ANALYSIS OF METHYLATED PROTEINS” (The Board of Trustees of the Leland Stanford Junior …, priority 2013, published 2014).

T1: G9a and GLP (Homo sapiens, UniProt Q96KQ7+Q9H9B1)
T1 sequence (Q96KQ7 2-1210 limits assumed): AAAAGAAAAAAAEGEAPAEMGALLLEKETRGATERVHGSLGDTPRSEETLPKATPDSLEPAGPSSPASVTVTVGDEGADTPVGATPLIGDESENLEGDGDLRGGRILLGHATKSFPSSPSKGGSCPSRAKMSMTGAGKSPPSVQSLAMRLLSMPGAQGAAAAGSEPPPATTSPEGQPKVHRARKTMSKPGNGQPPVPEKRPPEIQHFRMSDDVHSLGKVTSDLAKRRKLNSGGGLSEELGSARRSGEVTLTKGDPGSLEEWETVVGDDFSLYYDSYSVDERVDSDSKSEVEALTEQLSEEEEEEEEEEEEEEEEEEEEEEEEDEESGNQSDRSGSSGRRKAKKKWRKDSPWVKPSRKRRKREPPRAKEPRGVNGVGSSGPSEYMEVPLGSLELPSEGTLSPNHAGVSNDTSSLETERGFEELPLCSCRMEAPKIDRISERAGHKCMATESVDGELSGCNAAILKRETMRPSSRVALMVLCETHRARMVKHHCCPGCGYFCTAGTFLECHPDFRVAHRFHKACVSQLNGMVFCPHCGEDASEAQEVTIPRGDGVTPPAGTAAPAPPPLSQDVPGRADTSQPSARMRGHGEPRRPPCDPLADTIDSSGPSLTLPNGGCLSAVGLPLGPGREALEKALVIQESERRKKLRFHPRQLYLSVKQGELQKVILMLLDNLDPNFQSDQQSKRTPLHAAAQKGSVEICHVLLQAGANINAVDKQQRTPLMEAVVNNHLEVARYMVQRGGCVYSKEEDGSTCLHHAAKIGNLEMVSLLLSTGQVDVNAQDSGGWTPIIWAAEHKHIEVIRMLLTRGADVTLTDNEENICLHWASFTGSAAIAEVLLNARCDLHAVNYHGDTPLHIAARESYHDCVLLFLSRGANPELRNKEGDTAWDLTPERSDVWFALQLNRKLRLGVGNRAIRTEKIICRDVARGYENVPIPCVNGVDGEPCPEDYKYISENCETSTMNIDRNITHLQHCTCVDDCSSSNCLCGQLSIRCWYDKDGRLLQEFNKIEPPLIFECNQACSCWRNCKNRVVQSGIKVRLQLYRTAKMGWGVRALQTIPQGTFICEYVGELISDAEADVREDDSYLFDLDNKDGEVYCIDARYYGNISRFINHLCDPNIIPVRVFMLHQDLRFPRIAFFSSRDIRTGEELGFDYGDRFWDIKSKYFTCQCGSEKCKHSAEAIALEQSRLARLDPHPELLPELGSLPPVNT
T1 sequence (Q9H9B1 2-1298 limits assumed): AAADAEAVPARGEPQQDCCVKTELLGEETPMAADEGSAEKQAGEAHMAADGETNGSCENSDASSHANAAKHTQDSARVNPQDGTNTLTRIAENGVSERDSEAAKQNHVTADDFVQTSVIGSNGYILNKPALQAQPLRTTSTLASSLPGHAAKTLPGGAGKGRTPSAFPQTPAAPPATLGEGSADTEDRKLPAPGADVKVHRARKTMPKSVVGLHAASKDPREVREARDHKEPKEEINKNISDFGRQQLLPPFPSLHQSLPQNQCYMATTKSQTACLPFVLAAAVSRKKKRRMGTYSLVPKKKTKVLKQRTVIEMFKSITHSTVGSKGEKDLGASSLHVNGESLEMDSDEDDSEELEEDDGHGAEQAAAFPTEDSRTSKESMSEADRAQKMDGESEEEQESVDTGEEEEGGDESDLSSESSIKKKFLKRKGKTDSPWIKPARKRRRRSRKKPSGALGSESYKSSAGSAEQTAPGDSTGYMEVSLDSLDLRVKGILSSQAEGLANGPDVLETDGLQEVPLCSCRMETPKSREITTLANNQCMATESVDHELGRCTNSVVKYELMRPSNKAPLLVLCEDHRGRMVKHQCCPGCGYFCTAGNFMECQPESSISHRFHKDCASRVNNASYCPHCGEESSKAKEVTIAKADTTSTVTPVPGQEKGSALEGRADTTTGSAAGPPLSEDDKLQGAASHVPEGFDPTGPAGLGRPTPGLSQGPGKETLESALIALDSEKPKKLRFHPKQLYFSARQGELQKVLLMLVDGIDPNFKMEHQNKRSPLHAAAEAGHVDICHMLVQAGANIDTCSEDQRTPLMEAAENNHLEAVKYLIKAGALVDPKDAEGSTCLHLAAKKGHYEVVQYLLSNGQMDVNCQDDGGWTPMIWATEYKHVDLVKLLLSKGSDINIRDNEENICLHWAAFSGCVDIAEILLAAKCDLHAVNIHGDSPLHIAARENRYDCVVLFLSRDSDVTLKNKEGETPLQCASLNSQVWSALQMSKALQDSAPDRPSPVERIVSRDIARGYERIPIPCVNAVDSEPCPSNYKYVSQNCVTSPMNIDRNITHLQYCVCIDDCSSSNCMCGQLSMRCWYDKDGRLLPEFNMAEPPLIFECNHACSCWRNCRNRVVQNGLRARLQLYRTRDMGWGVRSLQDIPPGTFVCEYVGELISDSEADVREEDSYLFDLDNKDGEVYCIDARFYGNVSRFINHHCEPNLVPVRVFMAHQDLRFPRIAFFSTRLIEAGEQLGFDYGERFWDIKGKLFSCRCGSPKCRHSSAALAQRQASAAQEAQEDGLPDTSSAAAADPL


Tests used:
3×MBT domain of L3MBTL1 = assay: Triple SILAC pull-down, 3xMBT/3xMBTD355N ratio (cytoplasmic, nuclear and chromatin fractions of 293T cells); assay type: binding, human; details: SILAC ratio, pull-down 3xMBT vs 3xMBTD355N; for 3xMBT/D355N UNC Heavy: experiment with UNC0638 in heavy SILAC media; for 3xMBT/D355N UNC Light: experiment with UNC0638 in light SILAC media;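 for all read-outs here: proteins quantified with MaxQuant, requiring at least two unique peptides and quantification in both label directions, normalized to the mean of proteins from a digested loading control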
G9a and GLP = molecular target: T1, G9a and GLP; assay: Triple SILAC pull-down after UNC0638 treatment of 293T cells, DMSO/UNC0638 ratio of protein captured by 3×MBT; assay type: cell-based; parameters: endogenous in cells; host or cells: HEK 293T; details: for Relative to UNC0638 UNC Heavy / Relative to UNC0638 UNC Light: SILAC ratio DMSO/UNC0638 of protein pulled down with 3xMBT; for Relative to UNC0638 UNC Heavy: UNC0638 in heavy SILAC media; for Relative to UNC0638 UNC Light: UNC0638 in light SILAC media; for Relative to UNC0638 Average: average of UNC Light and UNC Heavy experiments;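 for all read-outs here: mass spectrometry (Q-Exactive) SILAC quantitation, DMSO/UNC0638 ratio computed after subtracting 3×MBTD355N mutant pull-down background, only proteins with at least twofold 3×MBT over mutant signal considered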

Row | Relative to UNC0638 UNC Heavy (G9a and GLP) [log base 2] | Relative to UNC0638 UNC Light (G9a and GLP) [log base 2] | Relative to UNC0638 Average (G9a and GLP) [log base 2] | Molecule | 3xMBT/D355N UNC Heavy (3×MBT domain of L3MBTL1) [log base 2] | 3xMBT/D355N UNC Light (3×MBT domain of L3MBTL1) [log base 2]
1 | 0.28 | 0.39 | 0.34 | HNRNPH3 (protein, UniProt P31942 1-346, looked up) Heterogeneous nuclear …: MDWVMKHNGPNDASDGTVRLRGLPFGCSKEEIVQFFQGLEIVPNGITLTMDYQGRSTGEAFVQFASKEIAENALGKHKERIGHRYIEIFRSSRSEIKGFYDPPRRLLGQRPGPYDRPIGGRGGYYGAGRGSMYDRMRRGGDGYDGGYGGFDDYGGYNNYGYGNDGFDDRMRDGRGMGGHGYGGAGDASSGFHGGHFVHMRGLPFRATENDIANFFSPLNPIRVHIDIGADGRATGEADVEFVTHEDAVAAMSKDKNNMQHRYIELFLNSTPGGGSGMGGSGMGGYGRDGMDNQGGYGSVGRMGMGNNYSGGYGTPDGLGGYGRGGGGSGGYYGQGGMSGGGWRGMY | 1.94 | 2.57
2 | 0.54 | 0.13 | 0.33 | DBR1 (protein, UniProt Q9UK59 1-544, looked up) Lariat debranching enzyme: MRVAVAGCCHGELDKIYETLALAERRGPGPVDLLLCCGDFQAVRNEADLRCMAVPPKYRHMQTFYRYYSGEKKAPVLTLFIGGNHEASNHLQELPYGGWVAPNIYYLGLAGVVKYRGVRIGGISGIFKSHDYRKGHFECPPYNSSTIRSIYHVRNIEVYKLKQLKQPIDIFLSHDWPRSIYHYGNKKQLLKTKSFFRQEVENNTLGSPAASELLEHLKPTYWFSAHLHVKFAALMQHQAKDKGQTARATKFLALDKCLPHRDFLQILEIEHDPSAPDYLEYDIEWLTILRATDDLINVTGRLWNMPENNGLHARWDYSATEEGMKEVLEKLNHDLKVPCNFSVTAACYDPSKPQTQMQLIHRINPQTTEFCAQLGIIDINVRLQKSKEEHHVCGEYEEQDDVESNDSGEDQSEYNTDTSALSSINPDEIMLDEEEDEDSIVSAHSGMNTPSVEPSDQASEFSASFSDVRILPGSMIVSSDDTVDSTIDREGKPGGTVESGNGEDLTKVPLKRLSDEHEPEQRKKIKRRNQAIYAAVDDDDDDAA | 3.11 | 2.56

More lines, now with the values behind:

Row | Molecule | Relative to UNC0638 UNC Heavy (G9a and GLP) [log base 2] | Relative to UNC0638 UNC Light (G9a and GLP) [log base 2] | Relative to UNC0638 Average (G9a and GLP) [log base 2] | 3xMBT/D355N UNC Heavy (3×MBT domain of L3MBTL1) [log base 2] | 3xMBT/D355N UNC Light (3×MBT domain of L3MBTL1) [log base 2]
3 | CLASP2 (protein, UniProt O75122 1-1294, looked up) CLIP-associating protein 2: MAMGDDKSFDDEESVDGNRPSSAASAFKVPAPKTSGNPANSARKPGSAGGPKVGGASKEGGAGAVDEDDFIKAFTDVPSIQIYSSRELEETLNKIREILSDDKHDWDQRANALKKIRSLLVAGAAQYDCFFQHLRLLDGALKLSAKDLRSQVVREACITVAHLSTVLGNKFDHGAEAIVPTLFNLVPNSAKVMATSGCAAIRFIIRHTHVPRLIPLITSNCTSKSVPVRRRSFEFLDLLLQEWQTHSLERHAAVLVETIKKGIHDADAEARVEARKTYMGLRNHFPGEAETLYNSLEPSYQKSLQTYLKSSGSVASLPQSDRSSSSSQESLNRPFSSKWSTANPSTVAGRVSAGSSKASSLPGSLQRSRSDIDVNAAAGAKAHHAAGQSVRSGRLGAGALNAGSYASLEDTSDKLDGTASEDGRVRAKLSAPLAGMGNAKADSRGRSRTKMVSQSQPGSRSGSPGRVLTTTALSTVSSGVQRVLVNSASAQKRSKIPRSQGCSREASPSRLSVARSSRIPRPSVSQGCSREASRESSRDTSPVRSFQPLASRHHSRSTGALYAPEVYGASGPGYGISQSSRLSSSVSAMRVLNTGSDVEEAVADALKKPARRRYESYGMHSDDDANSDASSACSERSYSSRNGSIPTYMRQTEDVAEVLNRCASSNWSERKEGLLGLQNLLKNQRTLSRVELKRLCEIFTRMFADPHGKRVFSMFLETLVDFIQVHKDDLQDWLFVLLTQLLKKMGADLLGSVQAKVQKALDVTRESFPNDLQFNILMRFTVDQTQTPSLKVKVAILKYIETLAKQMDPGDFINSSETRLAVSRVITWTTEPKSSDVRKAAQSVLISLFELNTPEFTMLLGALPKTFQDGATKLLHNHLRNTGNGTQSSMGSPLTRPTPRSPANWSSPLTSPTNTSQNTLSPSAFDYDTENMNSEDIYSSLRGVTEAIQNFSFRSQEDMNEPLKRDSKKDDGDSMCGGPGMSDPRAGGDATDSSQTALDNKASLLHSMPTHSSPRSRDYNPYNYSDSISPFNKSALKEAMFDDDADQFPDDLSLDHSDLVAELLKELSNHNERVEERKIALYELMKLTQEESFSVWDEHFKTILLLLLETLGDKEPTIRALALKVLREILRHQPARFKNYAELTVMKTLEAHKDPHKEVVRSAEEAASVLATSISPEQCIKVLCPIIQTADYPINLAAIKMQTKVIERVSKETLNLLLPEIMPGLIQGYDNSESSVRKACVFCLVAVHAVIGDELKPHLSQLTGSKMKLLNLYIKRAQTGSGGADPTTDVSGQS | 0.45 | 0.19 | 0.32 | 2.43 | 2.10
4 | DUT (protein, UniProt P33316 70-252, looked up) Deoxyuridine 5'-triphosphate …: ASTVGAAGWKGELPKAGGSPAPGPETPAISPSKRARPAEVGGMQLRFARLSEHATAPTRGSARAAGYDLYSAYDYTIPPMEKAVVKTDIQIALPSGCYGRVAPRSGLAAKHFIDVGAGVIDEDYRGNVGVVLFNFGKEKFEVKKGDRIAQLICERIFYPEIEEVQALDDTERGSGGFGSTGKN | 0.62 | 0.04 | 0.33 | 1.63 | 2.37
